Results published in FireProtDB (doi:10.1002/cbic.201402128).
Several values for one entry are separate records, joined by “and”; a condition that tells them apart may be missing. Equal values may be shown once.

B1: Haloalkane dehalogenase, D4Z2G1 (parent)
chain: MSLGAKPFGEKKFIEIKGRRMAYIDEGTGDPILFQHGNPTSSYLWRNIMPHCAGLGRLIACDLIGMGDSDKLDPSGPERYAYAEHRDYLDALWEALDLGDRVVLVVHDWGSALGFDWARRHRERVQGIAYMEAIAMPIEWADFPEQDRDLFQAFRSQAGEELVLQDNVFVEQVLPGLILRPLSEAEMAAYREPFLAAGEARRPTLSWPRQIPIAGTPADVVAIARDYAGWLSESPIPKLFINAEPGALTTGRMRDFCRTWPNQTEITVAGAHFIQEDSPDEIGAAIAAFVRRLRPA

Variants of: B1
Settings: Sphingobium indicum (strain DSM 16413 / CCM 7287 / MTCC 6362 / UT26 / NBRC 101211 / UT26S); pH 7.5; Thermal; fluorescence; Na-Hepes 50 mM; reversible: no; structure 1MJ5; whole UniProt chain shown

| Variant | Tm | change of melting temperature, mutant - wild type (higher = more stable) |
| --- | --- | --- |
| S2C N47C | 48 °C | -3 °C |
| L3S | 50.5 °C | -0.5 °C |
| A5C A185C | 56 °C and 55.5 °C | 5 °C and 6.5 °C |
| A5E | 51.5 °C | 0.5 °C |
| A5L | 50 °C | -1 °C |
| K6E | 51 °C | 0 °C |
| E15T | 52 °C | 1 °C |
| R20C D70C | 45.5 °C | -3.5 °C |
| R20L | 50 °C | -1 °C |
| E26H | 50 °C | -1 °C |
| E26Q | 51 °C | 0 °C |
| E26R | 50 °C | -1 °C |
| E26V | 51 °C | 0 °C |
| D30A | 51 °C | 0 °C |
| D30E | 51 °C | 0 °C |
| D30H | 51 °C | 0 °C |
| D30V | 49 °C | -2 °C |
| Q35I | 50.5 °C | -0.5 °C |
| Q35L | 48.5 °C | -2.5 °C |
| Q35V | 48.5 °C | -2.5 °C |
| S41Q | 49 °C | -2 °C |
| S42A | 49.5 °C | -1.5 °C |
| S42C A60C | 47.5 °C | -1.5 °C |
| I48C G283C | 49 °C | -2 °C |

| Variant | Tm | change of melting temperature, mutant - wild type (higher = more stable) |
| --- | --- | --- |
| H51C G283C | 48.5 °C and 46 °C | -2.5 °C and -3 °C |
| A53K | 51 °C | 0 °C |
| A53L | 52 °C | 1 °C |
| C61P | 50.5 °C | -0.5 °C |
| D68H | 52 °C | 1 °C |
| D68L | 49.5 °C | -1.5 °C |
| D68N | 50.5 °C | -0.5 °C |
| S75C E199C | 48.5 °C | -2.5 °C |
| S75C R79C | 45.5 °C and 44 °C | -5.5 °C and -5 °C |
| E78H | 51 °C | 0 °C |
| A81E | 48 °C | -3 °C |
| A81K | 52 °C | 1 °C |
| A81N | 51 °C | 0 °C |
| A81P | 48 °C | -3 °C |
| A83L | 51.5 °C | 0.5 °C |
| A83N | 50 °C | -1 °C |
| R86L | 49 °C | -2 °C |
| D87K | 50 °C | -1 °C |
| D87L | 51.5 °C | 0.5 °C |
| A95H | 50.5 °C | -0.5 °C |
| D97K | 50.5 °C | -0.5 °C |
| D97N | 50 °C | -1 °C |
| D97R | 51 °C | 0 °C |
| D100T | 51 °C | 0 °C |

| Variant | Tm | change of melting temperature, mutant - wild type (higher = more stable) |
| --- | --- | --- |
| R101H | 51 °C | 0 °C |
| V103I | 51 °C | 0 °C |
| V105I | 50 °C | -1 °C |
| V106C G114C | 50 °C | 1 °C |
| V106L | 50.5 °C | -0.5 °C |
| E123S | 51 °C | 0 °C |
| A129V | 50 °C | -1 °C |
| A133V | 51 °C | 0 °C |
| E139H | 61.5 °C | 10.5 °C |
| E139K | 58.5 °C | 7.5 °C |
| E139Q | 58.5 °C | 7.5 °C |
| E139T | 60.5 °C | 9.5 °C |
| D147H | 59.5 °C | 8.5 °C |
| D147L | 65 °C | 14 °C |
| D147M | 66 °C | 15 °C |
| D147Y | 65 °C | 14 °C |
| D149K | 67.5 °C | 16.5 °C |
| D149Q | 62 °C | 11 °C |
| Q152L | 61.5 °C | 10.5 °C |
| A153K | 61 °C | 10 °C |
| D166K | 53.5 °C | 2.5 °C |
| D166N | 53 °C | 2 °C |
| Q172K | 61.5 °C | 10.5 °C |
| G176A | 51.5 °C | 0.5 °C |

| Variant | Tm | change of melting temperature, mutant - wild type (higher = more stable) |
| --- | --- | --- |
| G176N | 51 °C | 0 °C |
| S183C E186C | 47 °C | -4 °C |
| S183D | 50 °C | -1 °C |
| A185P | 50.5 °C | -0.5 °C |
| A189F | 51.5 °C | 0.5 °C |
| A189Y | 51.5 °C | 0.5 °C |
| E192K | 54 °C | 3 °C |
| E192L | 51.5 °C | 0.5 °C |
| E192R | 53.5 °C | 2.5 °C |
| A196C A200C | 48.5 °C and 46 °C | -2.5 °C and -3 °C and -0.5 °C |
| A197P | 52.5 °C | 1.5 °C |
| A200P | 50.5 °C | -0.5 °C |
| A218E | 51 °C | 0 °C |
| A218P | 51.5 °C | 0.5 °C |
| D219Q | 50 °C | -1 °C |
| V220M | 61 °C | 10 °C |
| R225L | 51.5 °C | 0.5 °C |
| D226K | 50.5 °C | -0.5 °C |
| G229A | 51.5 °C | 0.5 °C |
| G229D | 51.5 °C | 0.5 °C |
| G229E | 51.5 °C | 0.5 °C |
| G229N | 51.5 °C | 0.5 °C |
| G229Q | 54 °C | 3 °C |
| G229R | 51.5 °C | 0.5 °C |

| Variant | Tm | change of melting temperature, mutant - wild type (higher = more stable) |
| --- | --- | --- |
| G229S | 52 °C | 1 °C |
| G229T | 51.5 °C | 0.5 °C |
| E233H | 51.5 °C | 0.5 °C |
| E233Q | 51.5 °C | 0.5 °C |
| E233S | 51.5 °C | 0.5 °C |
| E233T | 51.5 °C | 0.5 °C |
| E244I | 50 °C | -1 °C |
| E244V | 50.5 °C | -0.5 °C |
| A247F | 67.5 °C | 16.5 °C |
| L248F | 61.5 °C | 10.5 °C |
| L248W | 62 °C | 11 °C |
| T249L | 62.5 °C | 11.5 °C |
| T249M | 60.5 °C | 9.5 °C |
| T249V | 60 °C | 9 °C |
| R254L | 49.5 °C | -1.5 °C |
| D255A | 51.5 °C | 0.5 °C |
| D255K | 50.5 °C | -0.5 °C |
| D255Q | 50.5 °C | -0.5 °C |
| C257A | 48.5 °C | -2.5 °C |
| T264L | 50.5 °C | -0.5 °C |
